Results as given in US20210087294A1 (University of Pennsylvania, published 2021).

Legend:
[1] = target: T1, murine fibroblast activation protein (FAP) (murine, UniProt P97321 1-761); experiment: flow cytometry on BALB/c 3T3 cells expressing a murine FAP transgene
T1 construct: whole, on cells; also called mouse FAP; murine FAP
T1 sequence (looked up): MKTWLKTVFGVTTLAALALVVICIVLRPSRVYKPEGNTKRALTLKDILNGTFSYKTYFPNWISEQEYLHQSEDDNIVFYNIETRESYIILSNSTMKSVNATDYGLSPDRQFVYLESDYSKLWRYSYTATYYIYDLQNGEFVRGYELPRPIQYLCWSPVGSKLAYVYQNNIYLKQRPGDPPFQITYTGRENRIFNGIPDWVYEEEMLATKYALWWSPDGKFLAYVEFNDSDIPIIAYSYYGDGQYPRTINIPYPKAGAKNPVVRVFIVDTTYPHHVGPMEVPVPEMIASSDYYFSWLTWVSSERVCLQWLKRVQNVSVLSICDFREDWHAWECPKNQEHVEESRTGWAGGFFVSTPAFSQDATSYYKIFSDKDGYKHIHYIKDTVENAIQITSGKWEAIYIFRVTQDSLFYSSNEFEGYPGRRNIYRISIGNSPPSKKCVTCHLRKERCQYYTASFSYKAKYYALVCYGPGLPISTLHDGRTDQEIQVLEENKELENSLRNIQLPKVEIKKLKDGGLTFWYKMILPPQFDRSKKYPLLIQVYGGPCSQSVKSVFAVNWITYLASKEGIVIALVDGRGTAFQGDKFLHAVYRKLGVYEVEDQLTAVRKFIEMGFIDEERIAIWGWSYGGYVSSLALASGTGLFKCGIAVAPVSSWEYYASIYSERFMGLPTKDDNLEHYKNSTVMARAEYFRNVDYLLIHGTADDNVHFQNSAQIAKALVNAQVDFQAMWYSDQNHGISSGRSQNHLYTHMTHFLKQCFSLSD
Excerpt: (§1) On day 241, 2017 spleens were harvested, a single cell suspension prepared, and splenocytes fused with sp2/0 cells by the UPENN Hybridoma Core Facility. Hyridomas supernatants were initially screened by FACS on MC KOSA parental (FAP null) vs. canine FAP-transgene expressing MC KOSA.K9FAP using hybridoma supernatants as the primary antibodies and AF488 goat anti-mouseIgG as a secondary. Clone 4G5 identified as reactive to transduced cells but not parental cells and screened on additional cells to confirm reactivity with FAP expressing but not FAP-negative cells: Human primary fibroblasts, BALB/c 3T3 expressing murine or human FAP transgenes, canine primary fibroblasts, SK KOSA (FAP expressing), and BALB/c 3T3 (FAP negative) cells. 4G5 was then determined to be an IgG1k isotype antibody using (Thermo Fisher Rapid ELISA Mouse mAb Isotyping Kit #37503)
(§2) BALB/c 3T3 fibroblast cells transduced to express full-length canine FAP were then used to immunize 14 week old BALB/c FAP^{-/-} mice. All injections were given intraperitoneally and consisted of 1×10⁷ cells in 0.5 ml sterile PBS. The initial immunization was followed by six booster immunizations at regular intervals over the next eight months. At the conclusion of the study, spleens were harvested, and the resulting single-cell suspensions were used to generate hybridomas via fusion with sp2/0 cells. […]

[2] = target: T2, human fibroblast activation protein (FAP) (human, UniProt Q12884 1-760); experiment: flow cytometry on human primary fibroblasts and on BALB/c 3T3 cells expressing a human FAP transgene
T2 construct: whole, on cells; also called human FAP; huFAP
T2 sequence (looked up): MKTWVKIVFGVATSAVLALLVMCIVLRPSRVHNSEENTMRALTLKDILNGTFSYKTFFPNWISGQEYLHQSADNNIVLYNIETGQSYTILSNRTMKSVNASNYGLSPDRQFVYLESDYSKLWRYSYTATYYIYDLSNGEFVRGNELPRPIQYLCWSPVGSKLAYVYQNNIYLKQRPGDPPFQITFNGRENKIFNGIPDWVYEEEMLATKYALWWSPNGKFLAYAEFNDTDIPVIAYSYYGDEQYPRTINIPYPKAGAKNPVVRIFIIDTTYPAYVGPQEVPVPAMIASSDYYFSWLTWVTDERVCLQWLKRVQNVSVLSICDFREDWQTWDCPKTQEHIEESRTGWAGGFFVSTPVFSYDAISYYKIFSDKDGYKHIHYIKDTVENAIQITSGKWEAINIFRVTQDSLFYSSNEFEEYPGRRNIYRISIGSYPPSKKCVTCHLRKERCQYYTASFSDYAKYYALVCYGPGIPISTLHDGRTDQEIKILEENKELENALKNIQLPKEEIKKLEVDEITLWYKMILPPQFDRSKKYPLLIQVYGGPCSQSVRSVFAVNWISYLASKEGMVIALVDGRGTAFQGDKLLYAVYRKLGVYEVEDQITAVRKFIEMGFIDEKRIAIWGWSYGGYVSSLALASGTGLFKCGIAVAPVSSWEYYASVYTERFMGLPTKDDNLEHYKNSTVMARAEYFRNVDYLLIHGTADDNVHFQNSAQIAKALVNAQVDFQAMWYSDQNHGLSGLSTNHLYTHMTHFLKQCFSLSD
Excerpt: as §1, §2

B1: 4G5 anti-canine FAP antibody (antibody, V domains shown)
VH: QVQLQQPGAELVKPGASVKLSCKASGYTITSYSLHWVKQRPGQGLEWIGEINPANGDHNFSEKFEIKATLTVDSSSNTAFMQLSRLTSEDSAVYYCTRLDDSRFHWYFDVWGAGTTVTVSS
VL: QIVLTQSPALMSASPGEKVTMTCTASSSVSYMYWYQQKPRSSPKPWIFLTSNLASGVPARFSGRGSGTSFSLTISSMEAEDAATYYCQQWSGYPPITFGSGTKLEIK
notes: Mouse hybridoma monoclonal antibody, tested as hybridoma supernatant or immunoglobulin; also called clone 4G5; 4G5 immunoglobulin
binding result [1]: binds | binding result [2]: binds
